Target: POTRA1, 2 construct of BamA (E. coli)
Assay: SPR; Biacore T100; POTRA1, 2 immobilised by amine coupling to a CM5 chip; SurA flowed at 0 to 10 mg/ml; 25 mM MES, 150 mM NaCl, pH 6.5, 25°C

survival protein A (SurA), without the signal sequence (amino acids 21 to 428) (from UniProt P0ABZ6 21-428) (natural protein)
Kd: 16 µM
